B1: Protein NDR1 (Arabidopsis thaliana (Mouse-ear cress)), O48915 (parent)
chain: MNNQNEDTEGGRNCCTCCLSFIFTAGLTSLFLWLSLRADKPKCSIQNFFIPALGKDPNSRDNTTLNFMVRCDNPNKDKGIYYDDVHLNFSTINTTKINSSALVLVGNYTVPKFYQGHKKKAKKWGQVKPLNNQTVLRAVLPNGSAVFRLDLKTQVRFKIVFWKTKRYGVEVGADVEVNGDGVKAQKKGIKMKKSDSSFPLRSSFPISVLMNLLVFFAIR
partner: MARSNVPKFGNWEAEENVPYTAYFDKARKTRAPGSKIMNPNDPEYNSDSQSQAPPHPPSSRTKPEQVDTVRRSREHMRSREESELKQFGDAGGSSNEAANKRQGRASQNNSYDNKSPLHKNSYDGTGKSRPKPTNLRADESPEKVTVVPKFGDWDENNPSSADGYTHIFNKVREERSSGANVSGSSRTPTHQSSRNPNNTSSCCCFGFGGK

Variants of: B1
Conditions: with rin4_arath RIN4, Q8GYN5

Variant | effect of a mutation on the interaction
MNNANEDTEGGRNCCTCCLSFIFTAGLTSLFLWLSLRADKPKCSIQNFFIPALGKDPNSRDNTTLNFMVRCDNPNKDKGIYYDDVHLNFSTINTTKINSSALVLVGNYTVPKFYQGHKKKAKKWGQVKPLNNQTVLRAVLPNGSAVFRLDLKTQVRFKIVFWKTKRYGVEVGADVEVNGDGVKAQKKGIKMKKSDSSFPLRSSFPISVLMNLLVFFAIR [Q4A] | disrupting interaction
MNNQAEDTEGGRNCCTCCLSFIFTAGLTSLFLWLSLRADKPKCSIQNFFIPALGKDPNSRDNTTLNFMVRCDNPNKDKGIYYDDVHLNFSTINTTKINSSALVLVGNYTVPKFYQGHKKKAKKWGQVKPLNNQTVLRAVLPNGSAVFRLDLKTQVRFKIVFWKTKRYGVEVGADVEVNGDGVKAQKKGIKMKKSDSSFPLRSSFPISVLMNLLVFFAIR [N5A] | disrupting interaction
